± gives the standard error. Variants at the floor of the assay were thinned out.
B1: glmS ribozyme (parent)
chain: AUAAAAGCGCCAGAACUACAGAAAUGUAGUUGACGAGGAGGAGGUUUAUCGAAUUUUCGGCGGAUGCCUCCAAA

Variants of: B1
Assay: self-cleavage kobs at 2500 uM GlcN6P; higher = faster cleavage; RNA array
Conditions: with glucosamine-6-phosphate
How it was run: (§1)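 Tiles of sequenced MiSeq chips were imaged over ~14 h at 37 °C. On them, barcoded ribozyme variants had been transcribed in situ by E. coli RNA polymerase and were tracked via a hybridised Cy3 probe while glucosamine-6-phosphate (40 μM to 10 mM) in HEPES/KCl/Mg(OAc)2 buffer flowed in. Per-tile medians, normalised to baseline and to non-cleaving reference variants, were fit to one- or two-exponential decays for kobs, and weighted Michaelis–Menten fits gave kcat and KM.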
With AUAAAAGCGCCAGAACUACAGAAAUGUAGUUGACGAGGAGGAGGUUGAUCGAAUUUUAUGCGGAUGCCUGCAAA the “self-cleavage kobs at 2500 uM GlcN6P” value was 0.000334 ± 9.7e-05 s⁻¹. For AUAAAAGCGCCAGAACUACAGAAAUGUAGUUGACGAGGAGGAGGUUUAGCGAAUUUUCGGUGGAUGGCUCCAAA, the “self-cleavage kobs at 2500 uM GlcN6P” value was < 1e-05 s⁻¹. In the case of AUAAAAGCGCCAGAACUACAGAAAUGUAGUUGACGAGGAGGAGGUUUACUGAAUUGUCGGCGGAUGCCUCCAAA, the “self-cleavage kobs at 2500 uM GlcN6P” value is reported as < 1e-05 s⁻¹. With AUAAAAGCGCCAGAACUACAGAAAUGUAGUUGACGAGGAGGAUGUUUAUCGAAAUUUUCGGCGGAUCCUCCAAA the “self-cleavage kobs at 2500 uM GlcN6P” value was < 1e-05 s⁻¹. For AUAAAAGCGCCAGAACUACAGAAAUGUAGUUGACGAGGAGGAGAUAUUUCGACUUUUCGGCGGAUGCCUCCAAA, the “self-cleavage kobs at 2500 uM GlcN6P” value was < 1e-05 s⁻¹. In the case of AUAAAAGCGCCAGAACUACAGAAAUGUAGUUGACGAGGAGGAGUUUUACCGAAUUUUCGGAGGAUGCCUCCAAA, the “self-cleavage kobs at 2500 uM GlcN6P” value is reported as < 1e-05 s⁻¹. AUAAAAGCGCCAGAACUACAGAAAUGUAGUUGACGAGGAGGUGGUUUAUCGAAUUUUUGGCGGAGGCCUCCAAA was tested, and the “self-cleavage kobs at 2500 uM GlcN6P” value was < 1e-05 s⁻¹. With AUAAAAGCGCCAGAACUACAGAAAUGUAGUUGACGAGGAGGAGGUUUCUCGAAUUUUCGGUGGAUACCUCCAAA the “self-cleavage kobs at 2500 uM GlcN6P” value was < 1e-05 s⁻¹. AUAAAAGCGCCAGAACUACAGAAAUGUAGUUGACGAGGAGGUGGCUUAUCGGAUUUUCGGCGGAUGCCUUCAAA was tested, and the “self-cleavage kobs at 2500 uM GlcN6P” value was < 1e-05 s⁻¹. In the case of AUAAAAGCGCCAGAACUACAGAAAUGUAGUUGACGAGGAGGAGGUAUAUCGAAUUGUCGGCGGAUGGCUCCAAA, the “self-cleavage kobs at 2500 uM GlcN6P” value is reported as 0.000172 ± 4.6e-05 s⁻¹. With AUAAAAGCGCCAGAACUACAGAAAUGUAGUUGACGAGGAGGAGGUUUAUGGAAUUUCCGGCGGAUGCCUCGAAA the “self-cleavage kobs at 2500 uM GlcN6P” value was 0.000255 ± 0.00012 s⁻¹. In the case of AUAAAAGCGCCAGAACUACAGAAAUGUAGUUGACGAGGAGGAGGUUUACCGAAUUUGCGGCGGAUGCCUCCAAA, the “self-cleavage kobs at 2500 uM GlcN6P” value is reported as < 1e-05 s⁻¹. For AUAAAAGCGCCAGAACUACAGAAAUGUAGUUGACGAGGAGGAGGUUGUUCGAAUUUUCGGCGGAGGCCUCCAAA, the “self-cleavage kobs at 2500 uM GlcN6P” value was 0.000213 ± 5.9e-05 s⁻¹. For AUAAAAGCGCCAGAACUACAGAAAUGUAGUUGACGAGGAGGAGGUUUAACGAAGUUUCGGCGGAUGCCUCCAAA, the “self-cleavage kobs at 2500 uM GlcN6P” value was 4.22e-05 ± 1.9e-05 s⁻¹. AUAAAAGCGCCAGAACUACAGAAAUGUAGUUGACGAGGAGGAGGGUUAUUGAAUUGUCCGCGGAUGCCUCCAAA was tested, and the “self-cleavage kobs at 2500 uM GlcN6P” value was < 1e-05 s⁻¹. AUAAAAGCGCCAGAACUACAGAAAUGUAGUUGACGAGGAGGAGGUUUAACAAAUUUUCGGCUGAUGCCUCCAAA was tested, and the “self-cleavage kobs at 2500 uM GlcN6P” value was < 1e-05 s⁻¹. In the case of AUAAAAGCGCCAGAACUACAGAAAUGUAGUUGACGAGGAGGUUGUAUAUCGAAUUUUCGGCGGAUGCCUUCAAA, the “self-cleavage kobs at 2500 uM GlcN6P” value is reported as 6.44e-05 ± 2.4e-05 s⁻¹. With AUAAAAGCGCCAGAACUACAGAAAUGUAGUUGACGAGGAGGAGGUGUAUCGAAUUUUCGGUGGGUGCCUCCAAA the “self-cleavage kobs at 2500 uM GlcN6P” value was < 1e-05 s⁻¹. In the case of AUAAAAGCGCCAGAACUACAGAAAUGUAGUUGACGAGGAGGAGGUGUAUCGAAUUUUUGGCGGAUGCGUCCAAA, the “self-cleavage kobs at 2500 uM GlcN6P” value is reported as 0.000337 ± 0.00012 s⁻¹. For AUAAAAGCGCCAGAACUACAGAAAUGUAGUUGACGAGGAGGAGGCUUAUCGAAUUCUCGGCGAAUGCCUCCAAA, the “self-cleavage kobs at 2500 uM GlcN6P” value was < 1e-05 s⁻¹. For AUAAAAGCGCCAGAACUACAGAAAUGUAGUUGACGAGGAGGACGUUAAUCGAAUUUUCGGCUGAUGCCUCUAAA, the “self-cleavage kobs at 2500 uM GlcN6P” value was < 1e-05 s⁻¹. With AUAAAAGCGCCAGAACUACAGAAAUGUAGUUGACGAGGAGGAGGAUUAUCGUAUUUUCGGCGGAUGACUCCAAA the “self-cleavage kobs at 2500 uM GlcN6P” value was 8.33e-05 ± 2.5e-05 s⁻¹. With AUAAAAGCGCCAGAACUACAGAAAUGUAGUUGACGAGGAGGAGGUUCAUCGAAUUUCCGGCGGAUGCCUCGAAA the “self-cleavage kobs at 2500 uM GlcN6P” value was < 1e-05 s⁻¹. In the case of AUAAAAGCGCCAGAACUACAGAAAUGUAGUUGACGAGGAGGAGGUUCAUCGAAUUAUCGGCGGGUGCCUCCAAA, the “self-cleavage kobs at 2500 uM GlcN6P” value is reported as 0.000616 ± 0.00019 s⁻¹. AUAAAAGCGCCAGAACUACAGAAAUGUAGUUGACGAGGAGGAGGAAUAUCGAAUUUUCGGCGGAUGCCUCCAAA was tested, and the “self-cleavage kobs at 2500 uM GlcN6P” value was 0.0043 ± 0.0021 s⁻¹. In the case of AUAAAAGCGCCAGAACUACAGAAAUGUAGUUGACGAGGAGGAGGUUUACCGAAUCUUCGGCGGAUGCCUGCAAA, the “self-cleavage kobs at 2500 uM GlcN6P” value is reported as < 1e-05 s⁻¹. In the case of AUAAAAGCGCCAGAACUACAGAAAUGUAGUUGACGAGGAGGAGGUUAAUCGAUUUUUCGGCGGAAGCCUCCAAA, the “self-cleavage kobs at 2500 uM GlcN6P” value is reported as 0.00126 ± 0.00036 s⁻¹. With AUAAAAGCGCCAGAACUACAGAAAUGUAGUUGACGAGGAGGAGGUUUGUCGAAUUUUGGGCGAAUGCCUACAAA the “self-cleavage kobs at 2500 uM GlcN6P” value was 7.77e-05 ± 3.7e-05 s⁻¹. In the case of AUAAAAGCGCCAGAACUACAGAAAUGUAGUUGACGAGGAGGAGUAUAAUCGAAUUUUCGGCGGAUGCCUCCAAA, the “self-cleavage kobs at 2500 uM GlcN6P” value is reported as 0.000474 ± 0.0002 s⁻¹. With AUAAAAGCGCCAGAACUACAGAAAUGUAGUUGACGAGGAGGAGGUAUAUCGAUUUUUCGGCGGAUGCUUCCAAA the “self-cleavage kobs at 2500 uM GlcN6P” value was 0.000125 ± 6.3e-05 s⁻¹. With AUAAAAGCGCCAGAACUACAGAAAUGUAGUUGACGAGGAGGAGUUUUAUCGAAUUCACGGCGGAUGCCUCCAAA the “self-cleavage kobs at 2500 uM GlcN6P” value was < 1e-05 s⁻¹. With AUAAAAGCGCCAGAACUACAGAAAUGUAGUUGACGAGGAGGAAGUUUAUCGAAUUUUCGGCCGUUGCCUGCAAA the “self-cleavage kobs at 2500 uM GlcN6P” value was < 1e-05 s⁻¹. In the case of AUAAAAGCGCCAGAACUACAGAAAUGUAGUUGACGAGGAGGACGUUUGUCGAAUUUUCGGCGGAUGCCUCCAAA, the “self-cleavage kobs at 2500 uM GlcN6P” value is reported as < 1e-05 s⁻¹. AUAAAAGCGCCAGAACUACAGAAAUGUAGUUGACGAGGAGGUAGUUUAUCGAAUUUUCGUCGGAUGCCUCCAAA was tested, and the “self-cleavage kobs at 2500 uM GlcN6P” value was < 1e-05 s⁻¹. AUAAAAGCGCCAGAACUACAGAAAUGUAGUUGACGAGGAGGAGCUGUAUCGAAUUUUCGGCGAAUGCCUCCAAA was tested, and the “self-cleavage kobs at 2500 uM GlcN6P” value was < 1e-05 s⁻¹.

Variants of: B1
Assay: self-cleavage kobs at 10000 uM GlcN6P; higher = faster cleavage; RNA array
Conditions: with glucosamine-6-phosphate
How it was run: as §1
With AUAAAAGCGCCAGAACUACAGAAAUGUAGUUGACGAGGAGGAGGUUUAUGGAAUUUCCGGCGGAUGCCUCGAAA the “self-cleavage kobs at 10000 uM GlcN6P” value was 9.26e-05 ± 3.1e-05 s⁻¹. In the case of AUAAAAGCGCCAGAACUACAGAAAUGUAGUUGACGAGGAGGAGGUUUACCGAAUUUGCGGCGGAUGCCUCCAAA, the “self-cleavage kobs at 10000 uM GlcN6P” value is reported as < 1e-05 s⁻¹.
